Laboratory results reported in patent US7754689B2, “Finger-1 peptide analogs of the TGF-β superfamily” (Wyeth LLC, priority 2006, dated 2010).
Blank lines part the entries; values can stand above or below the binder they belong to. No end group written: not given here.

Key:
[1] = target: T1, BMP-12 (UniProt Q7Z4P5 322-450, limits assumed); test: peptide resin, filter plate; load 4: 25 mM MES pH 6.0
T1 construct: also called BMP12/GDF7
T1 sequence (looked up): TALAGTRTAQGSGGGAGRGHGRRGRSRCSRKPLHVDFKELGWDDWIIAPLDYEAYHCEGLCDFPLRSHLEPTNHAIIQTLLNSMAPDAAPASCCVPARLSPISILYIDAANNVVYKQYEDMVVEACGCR
Method: (§1) The coupled resins, plus an unconjugated resin for use as a control, were suspended in 16% ethanol, 150 mM NaCl, and 20 mM Tris buffer at pH 7.5 at a 25% v/v ratio (e.g., 25% ethanol, 75% Tris buffer). A Tecan liquid-handling robot was employed to aliquot 200 μL of each slurry into one of eight rows of a 96 well polystyrene filter plate (0.45 μm hydrophilic filters, Whatman catalog number 770-1806). Spinning at 1200 g for 3 min removed the liquid phase, leaving 50 μL of wet resin on the filters. The resins were then equilibrated with the loading buffers listed in Table 6 (K is a coefficient characterizing the strength of protein binding to a particular resin in a particular buffer). […] The resins were loaded by transferring 150 μL from the load plate to the filter plate and then incubating 20 min on a shaking platform to facilitate binding. The filter plate was spun down and the filtrate collected in a 96 well UV plate. The protein concentration in the filtrate, or flow-through, was calculated as $(A280-A320)/1.3$. The filter plate was then washed with 150 μL of 100 mM acetic acid, followed by 150 μL of 4M guanidine-HCl and 50 mM sodium acetate at pH 4.0. The protein concentration was measured in the new filtrate as described above. […] Flow-through and acetic acid elution samples from column 4 of the plate (loaded with MES pH 6) were analyzed on a gel (FIG. 14).

[2] = target: T1, BMP-12; test: peptide resin, filter plate; load 10: 50 mM Tris, 0.1 M NaCl, 40% MPD, pH 8.0
Method: as §1

[3] = target: T1, BMP-12; test: peptide resin, filter plate; load 5: 25 mM HEPES pH 7.0
Method: as §1

[4] = target: T1, BMP-12; test: peptide resin, filter plate; load 6: 1M CHES pH 9.7
Method: as §1

[5] = target: T1, BMP-12; test: peptide resin, filter plate; load 3: 25 mM Na Acetate pH 5.0
Method: as §1

[6] = target: T1, BMP-12; test: peptide resin, filter plate; load 1: 50 mM Acetic Acid, 0.1 M NaCl, pH 2.9
Method: as §1

[7] = target: T1, BMP-12; test: peptide resin, filter plate; load 2: 50 mM Acetic Acid, 0.1 M NaCl, pH 4.0
Method: as §1

[8] = target: T1, BMP-12; test: peptide resin, filter plate; load 11: 50 mM Tris, 0.25 M NaCl, 30% MPD, pH 8.0
Method: as §1

[9] = target: T1, BMP-12; test: peptide resin, filter plate; load 12: 50 mM Tris, 0.1 M NaCl, 20% MPD, pH 8.0
Method: as §1

100 mM HAc elution K [1]: 1 | 100 mM HAc elution conc [1]: 0.355 mg/mL | 4M Gnd, 50 mM NaAc pH 4 Strip Conc [1]: 0.053 mg/ml | Flow-through K [1]: 38 | Flow-through conc [1]: 0.035 mg/mL | Flow-through K [2]: 0 | Flow-through conc [2]: 0.435 mg/mL | 100 mM HAc elution K [3]: 0 | 100 mM HAc elution conc [3]: 0.254 mg/mL | 4M Gnd, 50 mM NaAc pH 4 Strip Conc [3]: 0.044 mg/ml | Flow-through K [3]: 4 | Flow-through conc [3]: 0.216 mg/mL | Flow-through K [4]: -1 | Flow-through conc [4]: 0.647 mg/mL | 100 mM HAc elution K [5]: 1 | 100 mM HAc elution conc [5]: 0.285 mg/mL | 4M Gnd, 50 mM NaAc pH 4 Strip Conc [5]: 0.07 mg/ml | Flow-through K [5]: 9 | Flow-through conc [5]: 0.124 mg/mL | 100 mM HAc elution K [6]: 1 | 100 mM HAc elution conc [6]: 0.102 mg/mL | 4M Gnd, 50 mM NaAc pH 4 Strip Conc [6]: 0.046 mg/ml | Flow-through K [6]: 1 | Flow-through conc [6]: 0.349 mg/mL | 100 mM HAc elution K [7]: 1 | 100 mM HAc elution conc [7]: 0.219 mg/mL | 4M Gnd, 50 mM NaAc pH 4 Strip Conc [7]: 0.089 mg/ml | Flow-through K [7]: 6 | Flow-through conc [7]: 0.156 mg/mL | Flow-through K [8]: 0 | Flow-through conc [8]: 0.425 mg/mL | Flow-through K [9]: 1 | Flow-through conc [9]: 0.411 mg/mL
B1: BMP2 N-trun 1S peptide 751 (peptide)
peptide: Ac-SDVGWNDWIVAPPGYHAFYSHGEK

100 mM HAc elution K [1]: 1 | 100 mM HAc elution conc [1]: 0.311 mg/mL | 4M Gnd, 50 mM NaAc pH 4 Strip Conc [1]: 0.06 mg/ml | Flow-through K [1]: 36 | Flow-through conc [1]: 0.037 mg/mL | Flow-through K [2]: 0 | Flow-through conc [2]: 0.423 mg/mL | 100 mM HAc elution K [3]: 0 | 100 mM HAc elution conc [3]: 0.187 mg/mL | 4M Gnd, 50 mM NaAc pH 4 Strip Conc [3]: 0.046 mg/ml | Flow-through K [3]: 2 | Flow-through conc [3]: 0.29 mg/mL | Flow-through K [4]: -1 | Flow-through conc [4]: 0.577 mg/mL | 100 mM HAc elution K [5]: 1 | 100 mM HAc elution conc [5]: 0.226 mg/mL | 4M Gnd, 50 mM NaAc pH 4 Strip Conc [5]: 0.072 mg/ml | Flow-through K [5]: 6 | Flow-through conc [5]: 0.163 mg/mL | 100 mM HAc elution K [6]: 1 | 100 mM HAc elution conc [6]: 0.096 mg/mL | 4M Gnd, 50 mM NaAc pH 4 Strip Conc [6]: 0.044 mg/ml | Flow-through K [6]: 1 | Flow-through conc [6]: 0.337 mg/mL | 100 mM HAc elution K [7]: 2 | 100 mM HAc elution conc [7]: 0.194 mg/mL | 4M Gnd, 50 mM NaAc pH 4 Strip Conc [7]: 0.087 mg/ml | Flow-through K [7]: 6 | Flow-through conc [7]: 0.164 mg/mL | Flow-through K [8]: 1 | Flow-through conc [8]: 0.342 mg/mL | Flow-through K [9]: 1 | Flow-through conc [9]: 0.364 mg/mL
B2: BMP2 N-trun peptide 750 (peptide)
peptide: Ac-SDVGWNDWIVAPPGYHAFYCHGEK

100 mM HAc elution K [1]: -1 | 100 mM HAc elution conc [1]: 0.104 mg/mL | 4M Gnd, 50 mM NaAc pH 4 Strip Conc [1]: 0.027 mg/ml | Flow-through K [1]: 0 | Flow-through conc [1]: 0.426 mg/mL | Flow-through K [2]: 0 | Flow-through conc [2]: 0.464 mg/mL | 100 mM HAc elution K [3]: 0 | 100 mM HAc elution conc [3]: 0.077 mg/mL | 4M Gnd, 50 mM NaAc pH 4 Strip Conc [3]: 0.021 mg/ml | Flow-through K [3]: 1 | Flow-through conc [3]: 0.397 mg/mL | Flow-through K [4]: -1 | Flow-through conc [4]: 0.626 mg/mL | 100 mM HAc elution K [5]: 0 | 100 mM HAc elution conc [5]: 0.073 mg/mL | 4M Gnd, 50 mM NaAc pH 4 Strip Conc [5]: 0.026 mg/ml | Flow-through K [5]: 1 | Flow-through conc [5]: 0.407 mg/mL | 100 mM HAc elution K [6]: 1 | 100 mM HAc elution conc [6]: 0.058 mg/mL | 4M Gnd, 50 mM NaAc pH 4 Strip Conc [6]: 0.024 mg/ml | Flow-through K [6]: 1 | Flow-through conc [6]: 0.397 mg/mL | 100 mM HAc elution K [7]: 1 | 100 mM HAc elution conc [7]: 0.057 mg/mL | 4M Gnd, 50 mM NaAc pH 4 Strip Conc [7]: 0.026 mg/ml | Flow-through K [7]: 1 | Flow-through conc [7]: 0.41 mg/mL | Flow-through K [8]: 0 | Flow-through conc [8]: 0.431 mg/mL | Flow-through K [9]: 0 | Flow-through conc [9]: 0.435 mg/mL
B3: BMP2 N-trunc_2 peptide 745 (peptide)
peptide: Ac-VAPPGYHAFYSHGEK
